The numbers were not newly measured in paper PMC3381941, which cites them from elsewhere.

The target in data set [1] is Mtf1 (Saccharomyces cerevisiae) (UniProt P14908). The data set is described as follows: protein-protein crosslinking.
The target is the same in data set [2]. The data set is described as follows: protein-protein crosslinking. This is another data set of the same source.

Where two headings read alike, the source gives them in different places.

Sequence of UniProt P14908 (P14908 2-341): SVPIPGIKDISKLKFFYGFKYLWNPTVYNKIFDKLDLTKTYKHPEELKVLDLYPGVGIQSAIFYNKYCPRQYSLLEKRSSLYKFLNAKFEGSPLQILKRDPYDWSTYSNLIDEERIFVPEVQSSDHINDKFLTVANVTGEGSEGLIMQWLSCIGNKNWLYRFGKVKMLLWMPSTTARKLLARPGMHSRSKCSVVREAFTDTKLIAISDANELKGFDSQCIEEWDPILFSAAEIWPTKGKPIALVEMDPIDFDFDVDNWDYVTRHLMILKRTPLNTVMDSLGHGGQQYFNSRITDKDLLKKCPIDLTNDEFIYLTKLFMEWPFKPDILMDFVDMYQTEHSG

For the substance Rpo41 (from UniProt P13433), the figures for the Kd in data set [1] and in data set [2] were 600 nM and 400 nM, respectively.
